Experimental data from publication doi:10.1101/2022.11.05.515292.

Columns and labels:
[1] = target: T1, Upstream Binding Transcription Factor (UBF), recombinant, P17480; test: SDS-PAGE without sample heating, with densitometry; details: remark: other sources report otherwise
T1 chain: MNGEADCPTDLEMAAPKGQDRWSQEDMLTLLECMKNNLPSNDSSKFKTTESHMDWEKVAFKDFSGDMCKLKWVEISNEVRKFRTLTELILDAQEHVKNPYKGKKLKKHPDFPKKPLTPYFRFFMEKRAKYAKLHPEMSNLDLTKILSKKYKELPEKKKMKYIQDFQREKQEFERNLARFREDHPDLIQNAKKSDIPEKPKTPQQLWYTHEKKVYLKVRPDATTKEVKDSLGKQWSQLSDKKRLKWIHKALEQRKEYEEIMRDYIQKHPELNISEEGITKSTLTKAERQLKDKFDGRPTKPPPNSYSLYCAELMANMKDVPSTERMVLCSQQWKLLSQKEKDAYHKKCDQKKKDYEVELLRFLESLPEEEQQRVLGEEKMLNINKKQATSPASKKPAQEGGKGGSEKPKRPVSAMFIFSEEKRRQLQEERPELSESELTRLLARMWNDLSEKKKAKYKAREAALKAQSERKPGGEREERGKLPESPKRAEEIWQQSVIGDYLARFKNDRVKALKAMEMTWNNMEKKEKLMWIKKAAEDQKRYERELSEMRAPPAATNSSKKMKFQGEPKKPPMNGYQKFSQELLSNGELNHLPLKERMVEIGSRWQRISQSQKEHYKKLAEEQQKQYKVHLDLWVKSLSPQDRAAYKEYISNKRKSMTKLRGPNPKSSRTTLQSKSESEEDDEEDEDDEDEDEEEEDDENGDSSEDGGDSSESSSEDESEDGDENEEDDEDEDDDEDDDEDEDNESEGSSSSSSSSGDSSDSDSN

[2] = target: T1, Upstream Binding Transcription Factor …; test: mass photometry; details: remark: other sources report otherwise

B1: Upstream Binding Transcription Factor (UBF), recombinant, P17480 1-764 (natural protein)
chain: MNGEADCPTDLEMAAPKGQDRWSQEDMLTLLECMKNNLPSNDSSKFKTTESHMDWEKVAFKDFSGDMCKLKWVEISNEVRKFRTLTELILDAQEHVKNPYKGKKLKKHPDFPKKPLTPYFRFFMEKRAKYAKLHPEMSNLDLTKILSKKYKELPEKKKMKYIQDFQREKQEFERNLARFREDHPDLIQNAKKSDIPEKPKTPQQLWYTHEKKVYLKVRPDATTKEVKDSLGKQWSQLSDKKRLKWIHKALEQRKEYEEIMRDYIQKHPELNISEEGITKSTLTKAERQLKDKFDGRPTKPPPNSYSLYCAELMANMKDVPSTERMVLCSQQWKLLSQKEKDAYHKKCDQKKKDYEVELLRFLESLPEEEQQRVLGEEKMLNINKKQATSPASKKPAQEGGKGGSEKPKRPVSAMFIFSEEKRRQLQEERPELSESELTRLLARMWNDLSEKKKAKYKAREAALKAQSERKPGGEREERGKLPESPKRAEEIWQQSVIGDYLARFKNDRVKALKAMEMTWNNMEKKEKLMWIKKAAEDQKRYERELSEMRAPPAATNSSKKMKFQGEPKKPPMNGYQKFSQELLSNGELNHLPLKERMVEIGSRWQRISQSQKEHYKKLAEEQQKQYKVHLDLWVKSLSPQDRAAYKEYISNKRKSMTKLRGPNPKSSRTTLQSKSESEEDDEEDEDDEDEDEEEEDDENGDSSEDGGDSSESSSEDESEDGDENEEDDEDEDDDEDDDEDEDNESEGSSSSSSSSGDSSDSDSN
- stoichiometry N [1]: 4
- stoichiometry N [2]: 4
